This assay deals with recombinant mouse nidogen-2 (ELISA) (mouse) (UniProt O88322). Briefly: ELISA. For orientation: An ELISA detects its analyte on a solid surface through an enzyme-linked reagent.
Sequence of UniProt O88322 (O88322 31-1403): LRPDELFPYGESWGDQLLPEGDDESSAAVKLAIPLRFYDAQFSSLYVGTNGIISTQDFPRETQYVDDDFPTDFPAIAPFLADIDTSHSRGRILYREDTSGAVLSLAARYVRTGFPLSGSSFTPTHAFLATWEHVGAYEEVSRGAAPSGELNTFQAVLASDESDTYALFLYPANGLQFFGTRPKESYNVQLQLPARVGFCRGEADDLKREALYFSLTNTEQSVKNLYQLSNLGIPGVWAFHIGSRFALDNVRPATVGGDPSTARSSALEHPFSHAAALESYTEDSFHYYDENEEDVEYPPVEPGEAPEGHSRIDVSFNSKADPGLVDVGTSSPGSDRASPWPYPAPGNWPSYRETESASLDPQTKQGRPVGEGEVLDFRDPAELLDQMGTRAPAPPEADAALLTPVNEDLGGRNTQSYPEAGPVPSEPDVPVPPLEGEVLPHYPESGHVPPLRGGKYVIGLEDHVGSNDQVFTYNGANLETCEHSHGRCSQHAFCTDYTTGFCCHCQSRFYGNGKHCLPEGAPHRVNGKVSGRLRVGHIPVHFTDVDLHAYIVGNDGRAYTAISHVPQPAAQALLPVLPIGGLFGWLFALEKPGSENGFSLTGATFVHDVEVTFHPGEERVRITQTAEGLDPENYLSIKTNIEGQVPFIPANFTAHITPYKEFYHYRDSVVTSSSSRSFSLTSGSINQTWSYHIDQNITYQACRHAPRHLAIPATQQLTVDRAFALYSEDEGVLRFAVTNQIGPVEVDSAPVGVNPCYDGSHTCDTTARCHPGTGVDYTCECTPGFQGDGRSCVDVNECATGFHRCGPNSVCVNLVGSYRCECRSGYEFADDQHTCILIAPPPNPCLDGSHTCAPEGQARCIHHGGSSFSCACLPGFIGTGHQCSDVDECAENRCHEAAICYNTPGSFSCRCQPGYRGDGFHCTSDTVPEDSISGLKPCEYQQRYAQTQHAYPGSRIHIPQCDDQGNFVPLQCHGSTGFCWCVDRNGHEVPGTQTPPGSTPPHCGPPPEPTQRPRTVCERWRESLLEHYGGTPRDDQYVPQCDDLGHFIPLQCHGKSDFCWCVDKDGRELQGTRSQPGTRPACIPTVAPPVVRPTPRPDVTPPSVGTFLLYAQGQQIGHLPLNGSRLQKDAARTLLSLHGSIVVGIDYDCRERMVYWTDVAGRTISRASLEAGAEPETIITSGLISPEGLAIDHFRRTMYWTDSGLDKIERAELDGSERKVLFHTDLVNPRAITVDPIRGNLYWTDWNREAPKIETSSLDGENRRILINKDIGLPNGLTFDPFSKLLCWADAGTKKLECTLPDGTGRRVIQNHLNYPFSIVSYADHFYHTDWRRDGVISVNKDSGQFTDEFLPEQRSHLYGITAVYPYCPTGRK
For the substance “LAR FNIII7-FLAG (purified soluble 7th FNIII domain of LAR) (domain or fragment)”, the Kd – broadly, the equilibrium constant for the complex coming apart – came to 2500 nM.
For “LAR FNIII4-FLAG (purified soluble 4th FNIII domain of LAR) (domain or fragment)”, the Kd came to 1900 nM.
As for “LAR FNIII5-FLAG (purified soluble 5th FNIII domain of LAR) (domain or fragment)”, the Kd turned out to be 1400 nM.
For “LAR FNIII2-FLAG (purified soluble 2nd FNIII domain of LAR) (domain or fragment)” the value was 2000 nM.
